# Reference: patent US12099068B2, “Biomarkers for graft-versus-host disease” (Incyte Corporation, priority 2018, dated 2024)
# B1: MIF (protein, UniProt P14174 2-115, looked up)
# Macrophage migration …: PMFIVNTNVPRASVPDGFLSELTQQLAQATGKPPQYIAVHVVPDQLMAFGGSSEPCALCSLHSIGKIGGAQNRSYSKLLCGLLAERLRISPDRVYINYYDMNAANVGWNNSTFA
# B2: KLK10 (protein, UniProt O43240 31-276, looked up)
# Kallikrein-10: AEAALLPQNDTRLDPEAYGSPCARGSQPWQVSLFNGLSFHCAGVLVDQSWVLTAAHCGNKPLWARVGDDHLLLLQGEQLRRTTRSVVHPKYHQGSGPILPRRTDEHDLMLLKLARPVVLGPRVRALQLPYRCAQPGDQCQVAGWGTTAARRVKYNKGLTCSSITILSPKECEVFYPGVVTNNMICAGLDRGQDPCQSDSGGPLVCDETLQGILSWGVYPCGSAQHPAVYTQICKYMSWINKVIRSN
# B3: FAM3C (protein, UniProt Q92520 25-227, looked up)
# Protein FAM3C: QVFEIKMDASLGNLFARSALDTAARSTKPPRYKCGISKACPEKHFAFKMASGAANVVGPKICLEDNVLMSGVKNNVGRGINVALANGKTGEVLDTKYFDMWGGDVAPFIEFLKAIQDGTIVLMGTYDDGATKLNDEARRLIADLGSTSITNLGFRDNWVFCGGKGIKTKSPFEQHIKNNKDTNKYEGWPEVVEMEGCIPQKQD
# B4: LAT2 (protein, UniProt Q9GZY6 1-243, looked up)
# Linker for activation of …: MSSGTELLWPGAALLVLLGVAASLCVRCSRPGAKRSEKIYQQRSLREDQQSFTGSRTYSLVGQAWPGPLADMAPTRKDKLLQFYPSLEDPASSRYQNFSKGSRHGSEEAYIDPIAMEYYNWGRFSKPPEDDDANSYENVLICKQKTTETGAQQEGIGGLCRGDLSLSLALKTGPTSGLCPSASPEEDEESEDYQNSASIHQWRESRKVMGQLQREASPGPVGSPDEEDGEPDYVNGEVAATEA
# B5: GDF-2 (protein, UniProt Q9UK05 320-429, looked up)
# Growth/differentiation factor …: SAGAGSHCQKTSLRVNFEDIGWDSWIIAPKEYEAYECKGGCFFPLADDVTPTKHAIVQTLVHLKFPTKVGKACCVPTKLSPISVLYKDDMGVPTLKYHYEGMSVAECGCR
# B6: AGR2 (protein, UniProt O95994 21-175, looked up)
# Anterior gradient protein 2 …: RDTTVKPGAKKDTKDSRPKLPQTLSRGWGDQLIWTQTYEEALYKSKTSNKPLMIIHHLDECPHSQALKKVFAENKEIQKLAEQFVLLNLVYETTDKHLSPDGQYVPRIMFVDPSLTVRADITGRYSNRLYAYEPADTALLLDNMKKALKLLKTEL
# B7: NUB1 (protein, UniProt Q9Y5A7 1-615, looked up)
# NEDD8 ultimate buster 1: MAQKKYLQAKLTQFLREDRIQLWKPPYTDENKKVGLALKDLAKQYSDRLECCENEVEKVIEEIRCKAIERGTGNDNYRTTGIATIEVFLPPRLKKDRKNLLETRLHITGRELRSKIAETFGLQENYIKIVINKKQLQLGKTLEEQGVAHNVKAMVLELKQSEEDARKNFQLEEEEQNEAKLKEKQIQRTKRGLEILAKRAAETVVDPEMTPYLDIANQTGRSIRIPPSERKALMLAMGYHEKGRAFLKRKEYGIALPCLLDADKYFCECCRELLDTVDNYAVLQLDIVWCYFRLEQLECLDDAEKKLNLAQKCFKNCYGENHQRLVHIKGNCGKEKVLFLRLYLLQGIRNYHSGNDVEAYEYLNKARQLFKELYIDPSKVDNLLQLGFTAQEARLGLRACDGNVDHAATHITNRREELAQIRKEEKEKKRRRLENIRFLKGMGYSTHAAQQVLHAASGNLDEALKILLSNPQMWWLNDSNPETDNRQESPSQENIDRLVYMGFDALVAEAALRVFRGNVQLAAQTLAHNGGSLPPELPLSPEDSLSPPATSPSDSAGTSSASTDEDMETEAVNEILEDIPEHEEDYLDSTLEDEEIIIAEYLSYVENRKSATKKN
# B8: SNAP23 (protein, UniProt O00161 1-211, looked up)
# Synaptosomal-associated …: MDNLSSEEIQQRAHQITDESLESTRRILGLAIESQDAGIKTITMLDEQKEQLNRIEEGLDQINKDMRETEKTLTELNKCCGLCVCPCNRTKNFESGKAYKTTWGDGGENSPCNVVSKQPGPVTNGQLQQPTTGAASGGYIKRITNDAREDEMEENLTQVGSILGNLKDMALNIGNEIDAQNPQIKRITDKADTNRDRIDIANARAKKLIDS
# B9: TIGAR (protein, UniProt Q9NQ88 1-270, looked up)
# Fructose-2,6-bisphosphatase …: MARFALTVVRHGETRFNKEKIIQGQGVDEPLSETGFKQAAAAGIFLNNVKFTHAFSSDLMRTKQTMHGILERSKFCKDMTVKYDSRLRERKYGVVEGKALSELRAMAKAAREECPVFTPPGGETLDQVKMRGIDFFEFLCQLILKEADQKEQFSQGSPSNCLETSLAEIFPLGKNHSSKVNSDSGIPGLAASVLVVSHGAYMRSLFDYFLTDLKCSLPATLSRSELMSVTPNTGMSLFIINFEEGREVKPTVQCICMNLQDHLNGLTETR
# B10: STAMPB (protein, UniProt O95630 1-424, looked up)
# STAM-binding protein: MSDHGDVSLPPEDRVRALSQLGSAVEVNEDIPPRRYFRSGVEIIRMASIYSEEGNIEHAFILYNKYITLFIEKLPKHRDYKSAVIPEKKDTVKKLKEIAFPKAEELKAELLKRYTKEYTEYNEEKKKEAEELARNMAIQQELEKEKQRVAQQKQQQLEQEQFHAFEEMIRNQELEKERLKIVQEFGKVDPGLGGPLVPDLEKPSLDVFPTLTVSSIQPSDCHTTVRPAKPPVVDRSLKPGALSNSESIPTIDGLRHVVVPGRLCPQFLQLASANTARGVETCGILCGKLMRNEFTITHVLIPKQSAGSDYCNTENEEELFLIQDQQGLITLGWIHTHPTQTAFLSSVDLHTHCSYQMMLPESVAIVCSPKFQETGFFKLTDHGLEEISSCRQKGFHPHSKDPPLFCSCSHVTVVDRAVTITDLR
# B11: MILR1 (protein, UniProt Q7Z6M3 20-343, looked up)
# Allergin-1: RKAVLDCEAMKTNEFPSPCLDSKTKVVMKGQNVSMFCSHKNKSLQITYSLFRRKTHLGTQDGKGEPAIFNLSITEAHESGPYKCKAQVTSCSKYSRDFSFTIVDPVTSPVLNIMVIQTETDRHITLHCLSVNGSLPINYTFFENHVAISPAISKYDREPAEFNLTKKNPGEEEEYRCEAKNRLPNYATYSHPVTMPSTGGDSCPFCLKLLLPGLLLLLVVIILILAFWVLPKYKTRKAMRNNVPRDRGDTAMEVGIYANILEKQAKEESVPEVGSRPCVSTAQDEAKHSQELQYATPVFQEVAPREQEACDSYKSGYVYSELNF
# Tested on: plasma proteins
# Assay: Plasma proteins modulated between baseline and day 28 in responders (CR, VGPR, PR; n = 19), Example 6 (Table 13)
# Type: in vivo, human
# Settings: plasma protein (OLINK NPX); responders (CR, VGPR, PR; n = 19); itacitinib 200 mg or 300 mg QD with corticosteroids; day 28 vs baseline
# In short: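 Plasma at baseline/screening and day 28 profiled for >1000 proteins by OLINK proximity extension assay, reported as NPX (log2). Steroid-naive and steroid-refractory patients pooled. Paired and unpaired t tests, ANOVA and Pearson correlation applied; significance at P<0.05.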
Molecule,"Fold Change, Decreased Expression from Baseline to Day 28","Fold Change, Increased Expression from Baseline to Day 28"
B1,−1.7486,
B2,,1.2102
B3,,1.3109
B4,−1.7755,
B5,,1.3656
B6,,1.4472
B7,−1.4966,
B8,−1.5751,
B9,−1.3733,
B10,−1.3721,
B11,−1.3829,
